Experiments:
[1] = target: haemagglutinin (HA) of human influenza A type virus strain A/Okuda/57 (H2N2 subtype) (human influenza A type virus, H2N2 subtype, strain A/Okuda/57)
[2] = target: haemagglutinin (HA) of human influenza A type virus strain A/PR/8/34 (H1N1 subtype) (human influenza A type virus, H1N1 subtype, strain A/PR/8/34) (UniProt P03452)
[3] = target: haemagglutinin (HA) of human influenza A type virus strain A2/Aichi/2/68 (H3N2 subtype) (human influenza A type virus, H3N2 subtype, strain A2/Aichi/2/68) (UniProt P03437)
[4] = target: haemagglutinin (HA) of human influenza A type virus strain A/Adachi/2/57 (H2N2 subtype) (human influenza A type virus, H2N2 subtype, strain A/Adachi/2/57)
[5] = target: haemagglutinin (HA) of human influenza A type virus strain A/Bangkok/10/83 (H1N1 subtype) (human influenza A type virus, H1N1 subtype, strain A/Bangkok/10/83)
[6] = target: haemagglutinin (HA) of human influenza A type virus strain A/Fukuoka/C29/85 (H3N2 subtype) (human influenza A type virus, H3N2 subtype, strain A/Fukuoka/C29/85)
[7] = target: haemagglutinin (HA) of human influenza A type virus strain A/Ibaraki/1/90 (H3N2 subtype) (human influenza A type virus, H3N2 subtype, strain A/Ibaraki/1/90)
[8] = target: haemagglutinin (HA) of human influenza A type virus strain A/Izumi/5/65 (H2N2 subtype) (human influenza A type virus, H2N2 subtype, strain A/Izumi/5/65)
[9] = target: haemagglutinin (HA) of human influenza A type virus strain A/Kaizuka/2/65 (H2N2 subtype) (human influenza A type virus, H2N2 subtype, strain A/Kaizuka/2/65)
[10] = target: haemagglutinin (HA) of human influenza A type virus strain A/Kitakyushu/159/93 (H3N2 subtype) (human influenza A type virus, H3N2 subtype, strain A/Kitakyushu/159/93)
[11] = target: haemagglutinin (HA) of human influenza A type virus strain A/Kumamoto/1/65 (H2N2 subtype) (human influenza A type virus, H2N2 subtype, strain A/Kumamoto/1/65)
[12] = target: haemagglutinin (HA) of human influenza A type virus strain A/Okuda/57 (H2N2 subtype) (human influenza A type virus, H2N2 subtype, strain A/Okuda/57); remark: listed apart in the source
[13] = target: haemagglutinin (HA) of human influenza A type virus strain A/Osaka/930/88 (H1N1 subtype) (human influenza A type virus, H1N1 subtype, strain A/Osaka/930/88)
[14] = target: haemagglutinin (HA) of human influenza A type virus strain A/PR/8/34 (H1N1 subtype) (human influenza A type virus, H1N1 subtype, strain A/PR/8/34) (UniProt P03452); remark: listed apart in the source
[15] = target: haemagglutinin (HA) of human influenza A type virus strain A/Sichuan/2/87 (H3N2 subtype) (human influenza A type virus, H3N2 subtype, strain A/Sichuan/2/87)
[16] = target: haemagglutinin (HA) of human influenza A type virus strain A/Suita/1/89 (H1N1 subtype) (human influenza A type virus, H1N1 subtype, strain A/Suita/1/89)
[17] = target: haemagglutinin (HA) of human influenza A type virus strain A/Suita/1/90 (H3N2 subtype) (human influenza A type virus, H3N2 subtype, strain A/Suita/1/90)
[18] = target: haemagglutinin (HA) of human influenza A type virus strain A/Yamagata/120/86 (H1N1 subtype) (human influenza A type virus, H1N1 subtype, strain A/Yamagata/120/86)
[19] = target: haemagglutinin (HA) of human influenza A type virus strain A1/FM/1/47 (H1N1 subtype) (human influenza A type virus, H1N1 subtype, strain A1/FM/1/47)
[20] = target: haemagglutinin (HA) of human influenza A type virus strain A2/Aichi/2/68 (H3N2 subtype) (human influenza A type virus, H3N2 subtype, strain A2/Aichi/2/68) (UniProt P03437); remark: listed apart in the source
[21] = target: influenza B type virus strain B/Nagasaki/1/87 (influenza B type virus, strain B/Nagasaki/1/87)

fused polypeptide of scFv of C179 with two Fc binding domain-like structures of protein A
0.074: Absorbance at 492 nm (absorbance at 492 nm) [3]
0.303: Absorbance at 492 nm (absorbance at 492 nm) [1]
0.15: Absorbance at 492 nm (absorbance at 492 nm) [2]

B1: monoclonal antibody C179 (antibody, V domains shown)
VH: EVKLVESGGGLVQPGGSLRLSCGTSGFTLTDDYMTWVRQPPGKALEWLGFIRDRANGYTTEYSASVKGRFTISRDNSQSIVYLQMNTLRVEDSATYYCARPKGYFPYAMDYWGQGT
VL: DIQMTQSPASQSASLGESVTITCLASQTIGTWLAWYQQKPGKSPQLLIYAATSLADGVPSRFSGSGSGTKFSFKISSLQAEDFVSYYCQQLYSTPWTF
< 32: HI activity (haemagglutination inhibition, antibody titer) (dilution ratio of the ascites fluid) [4] | HI activity (haemagglutination inhibition, antibody titer) (dilution ratio of the ascites fluid) [5] | HI activity (haemagglutination inhibition, antibody titer) (dilution ratio of the ascites fluid) [6] | HI activity (haemagglutination inhibition, antibody titer) (dilution ratio of the ascites fluid) [7] | HI activity (haemagglutination inhibition, antibody titer) (dilution ratio of the ascites fluid) [8] | HI activity (haemagglutination inhibition, antibody titer) (dilution ratio of the ascites fluid) [9] | HI activity (haemagglutination inhibition, antibody titer) (dilution ratio of the ascites fluid) [10] | HI activity (haemagglutination inhibition, antibody titer) (dilution ratio of the ascites fluid) [11] | HI activity (haemagglutination inhibition, antibody titer) (dilution ratio of the ascites fluid) [12] | HI activity (haemagglutination inhibition, antibody titer) (dilution ratio of the ascites fluid) [13] | HI activity (haemagglutination inhibition, antibody titer) (dilution ratio of the ascites fluid) [14] | HI activity (haemagglutination inhibition, antibody titer) (dilution ratio of the ascites fluid) [15] | HI activity (haemagglutination inhibition, antibody titer) (dilution ratio of the ascites fluid) [16] | HI activity (haemagglutination inhibition, antibody titer) (dilution ratio of the ascites fluid) [17] | HI activity (haemagglutination inhibition, antibody titer) (dilution ratio of the ascites fluid) [18] | HI activity (haemagglutination inhibition, antibody titer) (dilution ratio of the ascites fluid) [19] | HI activity (haemagglutination inhibition, antibody titer) (dilution ratio of the ascites fluid) [20] | HI activity (haemagglutination inhibition, antibody titer) (dilution ratio of the ascites fluid) [21]
< 100: Staining activity (antibody titer) [6] | Staining activity (antibody titer) [7] | Staining activity (antibody titer) [10] | Staining activity (antibody titer) [15] | Staining activity (antibody titer) [17] | Staining activity (antibody titer) [21]
1024: Neutralization activity (focus reduction neutralization test, antibody titer) [4] | Neutralization activity (focus reduction neutralization test, antibody titer) [8] | Neutralization activity (focus reduction neutralization test, antibody titer) [11] | Neutralization activity (focus reduction neutralization test, antibody titer) [12] | Neutralization activity (focus reduction neutralization test, antibody titer) [16] | Neutralization activity (focus reduction neutralization test, antibody titer) [18]
410000: Staining activity (antibody titer) [8] | Staining activity (antibody titer) [9] | Staining activity (antibody titer) [11] | Staining activity (antibody titer) [13] | Staining activity (antibody titer) [16] | Staining activity (antibody titer) [18] | Staining activity (antibody titer) [19]
< 16: Neutralization activity (focus reduction neutralization test, antibody titer) [6] | Neutralization activity (focus reduction neutralization test, antibody titer) [7] | Neutralization activity (focus reduction neutralization test, antibody titer) [10] | Neutralization activity (focus reduction neutralization test, antibody titer) [15] | Neutralization activity (focus reduction neutralization test, antibody titer) [17] | Neutralization activity (focus reduction neutralization test, antibody titer) [20] | Neutralization activity (focus reduction neutralization test, antibody titer) [21]
2048: Neutralization activity (focus reduction neutralization test, antibody titer) [9]
1.64e+06: Staining activity (antibody titer) [4] | Staining activity (antibody titer) [5] | Staining activity (antibody titer) [12]
512: Neutralization activity (focus reduction neutralization test, antibody titer) [5] | Neutralization activity (focus reduction neutralization test, antibody titer) [13] | Neutralization activity (focus reduction neutralization test, antibody titer) [14] | Neutralization activity (focus reduction neutralization test, antibody titer) [19]

From patent US5684146
